Measurements as given in US20150044137A1.
Several values for one entry are separate records, joined by “and”; a condition that tells them apart may be missing. Identical values can stand only once.

Experiments:
[1] = target: Yu2 gp120 HIV-1 Env protein (HIV-1 (strain Yu2)) (UniProt P35961)

Substance	IC50 (read off the curve) [1]	contribution of CDR H1 to gp120-binding surface area (HIV-1 gp120 (HIV-1))	contribution of CDR H2/FR3 to gp120-binding surface area (HIV-1 gp120 (HIV-1))	contribution of CDR H3 to gp120-binding surface area (HIV-1 gp120 (HIV-1))	total gp120-binding surface area (Total A 2) (HIV-1 gp120 (HIV-1))
CD4-Ig (Fc fusion)	0.08 µg/mL and 0.1 µg/mL	–	–	–	–
VRC01 (antibody)	–	44 Å2	701 Å2	122 Å2	867 Å2
